Paper doi:10.1101/2025.01.28.635353 (2025)

Molecular target: EGFR (UniProt P00533 25-1210)
Assay: SPR; printed as pKD […]

- Kd: 126 pM
B1: aEGFR-R1-1 (antibody, V domains shown)
VH: EVKLQQSGDETMRPGASVRMSCKAYGYTFTDYSMHWIRQRPGQGLEWIGIIIPLIDTTRYNQKFKGKATLTADTSSDTAYMELSRLTFEDSAVYYCARSYDPSGDDWFAYWGQGTLVTVSS
VL: DTVLTQSPALSVSPGERVDISCRASESVSTLLHWYQQKPGQQPTLLISLASSLESGVPARFSGSGSGTDFTLTIDPVEADDTAIYYCQESWNEPYAFGAGTKLELK
